Experimental data taken from PMC3160269.

Target: biotinylated soluble IA^b-p3K (mouse)
Assay: SPR

soluble YAe62 TCR
Kd: 9 µM
